# Source: IntAct's records for PubMed 16890161
# B1: Low-density lipoprotein receptor-related protein 6 (Homo sapiens), O75581 (parent)
# chain: MGAVLRSLLACSFCVLLRAAPLLLYANRRDLRLVDATNGKENATIVVGGLEDAAAVDFVFSHGLIYWSDVSEEAIKRTEFNKTESVQNVVVSGLLSPDGLACDWLGEKLYWTDSETNRIEVSNLDGSLRKVLFWQELDQPRAIALDPSSGFMYWTDWGEVPKIERAGMDGSSRFIIINSEIYWPNGLTLDYEEQKLYWADAKLNFIHKSNLDGTNRQAVVKGSLPHPFALTLFEDILYWTDWSTHSILACNKYTGEGLREIHSDIFSPMDIHAFSQQRQPNATNPCGIDNGGCSHLCLMSPVKPFYQCACPTGVKLLENGKTCKDGATELLLLARRTDLRRISLDTPDFTDIVLQLEDIRHAIAIDYDPVEGYIYWTDDEVRAIRRSFIDGSGSQFVVTAQIAHPDGIAVDWVARNLYWTDTGTDRIEVTRLNGTMRKILISEDLEEPRAIVLDPMVGYMYWTDWGEIPKIERAALDGSDRVVLVNTSLGWPNGLALDYDEGKIYWGDAKTDKIEVMNTDGTGRRVLVEDKIPHIFGFTLLGDYVYWTDWQRRSIERVHKRSAEREVIIDQLPDLMGLKATNVHRVIGSNPCAEENGGCSHLCLYRPQGLRCACPIGFELISDMKTCIVPEAFLLFSRRADIRRISLETNNNNVAIPLTGVKEASALDFDVTDNRIYWTDISLKTISRAFMNGSALEHVVEFGLDYPEGMAVDWLGKNLYWADTGTNRIEVSKLDGQHRQVLVWKDLDSPRALALDPAEGFMYWTEWGGKPKIDRAAMDGSERTTLVPNVGRANGLTIDYAKRRLYWTDLDTNLIESSNMLGLNREVIADDLPHPFGLTQYQDYIYWTDWSRRSIERANKTSGQNRTIIQGHLDYVMDILVFHSSRQSGWNECASSNGHCSHLCLAVPVGGFVCGCPAHYSLNADNRTCSAPTTFLLFSQKSAINRMVIDEQQSPDIILPIHSLRNVRAIDYDPLDKQLYWIDSRQNMIRKAQEDGSQGFTVVVSSVPSQNLEIQPYDLSIDIYSRYIYWTCEATNVINVTRLDGRSVGVVLKGEQDRPRAVVVNPEKGYMYFTNLQERSPKIERAALDGTEREVLFFSGLSKPIALALDSRLGKLFWADSDLRRIESSDLSGANRIVLEDSNILQPVGLTVFENWLYWIDKQQQMIEKIDMTGREGRTKVQARIAQLSDIHAVKELNLQEYRQHPCAQDNGGCSHICLVKGDGTTRCSCPMHLVLLQDELSCGEPPTCSPQQFTCFTGEIDCIPVAWRCDGFTECEDHSDELNCPVCSESQFQCASGQCIDGALRCNGDANCQDKSDEKNCEVLCLIDQFRCANGQCIGKHKKCDHNVDCSDKSDELDCYPTEEPAPQATNTVGSVIGVIVTIFVSGTVYFICQRMLCPRMKGDGETMTNDYVVHGPASVPLGYVPHPSSLSGSLPGMSRGKSMISSLSIMGGSSGPPYDRAHVTGASSSSSSSTKGTYFPAILNPPPSPATERSHYTMEFGYSSNSPSTHRSYSYRPYSYRHFAPPTTPCSTDVCDSDYAPSRRMTSVATAKGYTSDLNYDSEPVPPPPTPRSQYLSAEENYESCPPSPYTERSYSHHLYPPPPSPCTDSS
# Variants of: B1
# Conditions: with axin1_rat Axin1, O70239
# Chain of axin1_rat Axin1, O70239 (O70239 whole entry): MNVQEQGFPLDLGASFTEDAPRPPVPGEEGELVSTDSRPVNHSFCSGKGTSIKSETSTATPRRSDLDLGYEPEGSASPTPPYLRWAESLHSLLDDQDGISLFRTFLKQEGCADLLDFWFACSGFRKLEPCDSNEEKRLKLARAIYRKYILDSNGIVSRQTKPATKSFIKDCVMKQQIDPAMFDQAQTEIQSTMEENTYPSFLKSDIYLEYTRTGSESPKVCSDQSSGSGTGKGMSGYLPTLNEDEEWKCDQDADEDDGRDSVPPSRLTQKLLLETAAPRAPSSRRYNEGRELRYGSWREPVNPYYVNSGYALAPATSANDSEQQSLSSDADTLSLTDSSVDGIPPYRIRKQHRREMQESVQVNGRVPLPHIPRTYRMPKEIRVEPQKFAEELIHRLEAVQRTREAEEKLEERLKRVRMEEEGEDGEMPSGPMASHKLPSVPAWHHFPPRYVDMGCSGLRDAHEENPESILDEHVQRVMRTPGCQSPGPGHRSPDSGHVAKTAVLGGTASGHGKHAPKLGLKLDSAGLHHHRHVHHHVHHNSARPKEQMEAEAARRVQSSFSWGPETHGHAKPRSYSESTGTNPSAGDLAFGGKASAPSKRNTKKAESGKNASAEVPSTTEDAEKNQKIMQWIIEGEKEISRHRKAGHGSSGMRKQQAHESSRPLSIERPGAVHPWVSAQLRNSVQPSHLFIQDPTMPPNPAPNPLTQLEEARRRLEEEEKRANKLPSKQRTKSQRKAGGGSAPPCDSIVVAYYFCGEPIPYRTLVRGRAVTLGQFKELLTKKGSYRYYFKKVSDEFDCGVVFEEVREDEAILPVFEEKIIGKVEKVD
row,effect of a mutation on the interaction,Variant
1,decreasing interaction,S1490A
